Measurements as given in patent US20250163146A1 (published 2025).

B1: mDll4(N-EGF3) (ligand)
chain: GSGIFQLRLQEFVNQRGMLANGQSCEPGCRTFFRICLKHFQATFSEGPCTFGNVSTPVLGTNSFVVRDKNSGSGRNPLQLPFNFTWPGTFSLNIQAWHTPGDDLRPETSPGNSLISQIIIQGSLAVGKIWRTDEQNDTLTRLSYSYRVICSDNYYGESCSRLCKKRDDHFGHYECQPDGSLSCLPGWTGKYCDQPICLSGCHEQNGYCSKPDECICRPGWQGRLCNECIPHNGCRHGTCSIPWQCACDEGWGGLFCDQDLNYCTHHSPCKNGSTCSNSGPKGYTCTCLPGYTGEHCEL
modifications: biotinylated (site not stated)
B2: hDLL4(N-EGF5) (ligand)
chain: SGVFQLQLQEFINERGVLASGRPCEPGCRTFFRVCLKHFQAVVSPGPCTFGTVSTPVLGTNSFAVRDDSSGGGRNPLQLPFNFTWPGTFSLIIEAWHAPGDDLRPEALPPDALISKIAIQGSLAVGQNWLLDEQTSTLTRLRYSYRVICSDNYYGDNCSRLCKKRNDHFGHYVCQPDGNLSCLPGWTGEYCQQPICLSGCHEQNGYCSKPAECLCRPGWQGRLCNECIPHNGCRHGTCSTPWQCTCDEGWGGLFCDQDLNYCTHHSPCKNGATCSNSGQRSYTCTCRPGYTGVDCELELSECDSNPCRNGGSCKDQEDGYHCLCPPGYYGLHCEHSTLSCADSPCFNGGSCRERNQGANYACECPPNFTGSNCEK
modifications: biotinylated in the flow cytometry titration (site not stated); not stated for the plate-coated protein

Biological target: Nb.d4C4-1
Test: SPR

Row | Binder | Kd
1 | B1 | 1.63 nM
2 | B2 | 1.43 nM
